# Data from article PMC8807537 (Acta Naturae, 2021).
# Molecular target: T1, recombinant protein GP Zaire ebolavirus (H. sapiens-wt/GIN/2014/Kissidougou-C15 strain) (Zaire ebolavirus, …, UniProt X5HMX4, strain)
# T1 construct: also called EBOV GP; recombinant EBOV GP
# Assay: ELISA; indirect ELISA; […] (1 ug/ml) […]
# Conditions: both partners purified
binder,measurement,value
"control antibody MAb114 (antibody, V domains shown) VH: EVQLVESGGGLIQPGGSLRLSCAASGFALRMYDMHWVRQTIDKRLEWVSAVGPSGDTYYADSVKGRFAVSRENAKNSLSLQMNSLTAGDTAIYYCVRSDRGVAGLFDSWGQGILVTVSS VL: DIQMTQSPSSLSASVGDRITITCRASQAFDNYVAWYQQRPGKVPKLLISAASALHAGVPSRFSGSGSGTHFTLTISSLQPEDVATYYCQNYNSAPLTFGGGTKVEIK",binding result,binds
